# Results from the MegaScale stability set (Tsuboyama et al. 2023).
# B1: EEHEE_rd3_0130 (parent)
# chain: TKIIVNGKTFTAPTEEEAQKIAEKLAKKAGLTVHKKNGTFELK
# Variants of: B1
# Test: folding stability dG (cDNA display proteolysis); higher = more stable
# Conditions: PBS, room temperature
row,Variant,folding stability dG
1,TKIIVNGKTFTAPTEEEAQKIAEKLDKKAGLTVHKKNGTFELK [A26D],-0.815 kcal/mol
2,TKIIVNGKTFTAPTEEEAQKIAEKLNKKAGLTVHKKNGTFELK [A26N],-0.556 kcal/mol
3,TKIIVNGKTFTAPTEEEAQKIAEKLMKKAGLTVHKKNGTFELK [A26M],-0.151 kcal/mol
4,TKIIVNGKTFTAPTEEEAQKIAEKLCKKAGLTVHKKNGTFELK [A26C],0.45 kcal/mol
5,TKIIVNGKTFTAPTEEEAQKIAEKLQKKAGLTVHKKNGTFELK [A26Q],-0.508 kcal/mol
6,TKIIVNGKTFTAPTEEEAQKIAEKLTKKAGLTVHKKNGTFELK [A26T],-0.552 kcal/mol
7,TKIIVNGKTFTAPTEEEAQKIAEKLSKKAGLTVHKKNGTFELK [A26S],0.1 kcal/mol
8,TKIIVNGKTFTAPTEEEAQKIAEKLEKKAGLTVHKKNGTFELK [A26E],-0.437 kcal/mol
9,TKIIVNGKTFTAPTEEEAQKIAEKLWKKAGLTVHKKNGTFELK [A26W],-0.138 kcal/mol
10,TKIIVNGKTFTAPTEEEAQKIAEKLFKKAGLTVHKKNGTFELK [A26F],0.197 kcal/mol
11,TKIIVNGKTFTAPTEEEAQKIAEKLHKKAGLTVHKKNGTFELK [A26H],-0.447 kcal/mol
12,TKIIVNGKTFTAPTEEEAQKIAEKLVKKAGLTVHKKNGTFELK [A26V],-0.292 kcal/mol
13,TKIIVNGKTFTAPTEEEAQKIAEKLRKKAGLTVHKKNGTFELK [A26R],-0.166 kcal/mol
14,TKIIVNGKTFTAPTEEEAQKIAEKLLKKAGLTVHKKNGTFELK [A26L],0.094 kcal/mol
15,TKIIVNGKTFTAPTEEEAQKIAEKLGKKAGLTVHKKNGTFELK [A26G],0.163 kcal/mol
16,TKIIVNGKTFTAPTEEEAQKIAEKLKKKAGLTVHKKNGTFELK [A26K],-0.188 kcal/mol
17,TKIIVNGKTFTAPTEEEAQKIAEKLYKKAGLTVHKKNGTFELK [A26Y],-0.009 kcal/mol
18,TKIIVNGKTFTAPTEEEAQKIAEKLIKKAGLTVHKKNGTFELK [A26I],-0.198 kcal/mol
19,TKIIVNGKTFTAPTEEEAQKIASKLAKKAGLTVHKKNGTFELK [E23S],0.686 kcal/mol
20,TKIIVNGKTFTAPTEEEAQKIAVKLAKKAGLTVHKKNGTFELK [E23V],0.598 kcal/mol

row,Variant,folding stability dG
1,TKIIVNGKTFTAPTEEEAQKIAFKLAKKAGLTVHKKNGTFELK [E23F],0.837 kcal/mol
2,TKIIVNGKTFTAPTEEEAQKIACKLAKKAGLTVHKKNGTFELK [E23C],1.52 kcal/mol
3,TKIIVNGKTFTAPTEEEAQKIAYKLAKKAGLTVHKKNGTFELK [E23Y],1.13 kcal/mol
4,TKIIVNGKTFTAPTEEEAQKIAAKLAKKAGLTVHKKNGTFELK [E23A],0.74 kcal/mol
5,TKIIVNGKTFTAPTEEEAQKIAQKLAKKAGLTVHKKNGTFELK [E23Q],0.752 kcal/mol
6,TKIIVNGKTFTAPTEEEAQKIATKLAKKAGLTVHKKNGTFELK [E23T],0.669 kcal/mol
7,TKIIVNGKTFTAPTEEEAQKIAMKLAKKAGLTVHKKNGTFELK [E23M],1.04 kcal/mol
8,TKIIVNGKTFTAPTEEEAQKIALKLAKKAGLTVHKKNGTFELK [E23L],0.894 kcal/mol
9,TKIIVNGKTFTAPTEEEAQKIAGKLAKKAGLTVHKKNGTFELK [E23G],0.246 kcal/mol
10,TKIIVNGKTFTAPTEEEAQKIAWKLAKKAGLTVHKKNGTFELK [E23W],0.894 kcal/mol
11,TKIIVNGKTFTAPTEEEAQKIAHKLAKKAGLTVHKKNGTFELK [E23H],0.803 kcal/mol
12,TKIIVNGKTFTAPTEEEAQKIAKKLAKKAGLTVHKKNGTFELK [E23K],0.602 kcal/mol
13,TKIIVNGKTFTAPTEEEAQKIARKLAKKAGLTVHKKNGTFELK [E23R],0.794 kcal/mol
14,TKIIVNGKTFTAPTEEEAQKIADKLAKKAGLTVHKKNGTFELK [E23D],0.78 kcal/mol
15,TKIIVNGKTFTAPTEEEAQKIAIKLAKKAGLTVHKKNGTFELK [E23I],0.873 kcal/mol
16,TKIIVNGKTFTAPTEEEAQKIANKLAKKAGLTVHKKNGTFELK [E23N],0.832 kcal/mol
17,TKIIVNGKTFTAPTEEEAQKIAEKCAKKAGLTVHKKNGTFELK [L25C],1.13 kcal/mol
18,TKIIVNGKTFTAPTEEEAQKIAEKEAKKAGLTVHKKNGTFELK [L25E],-0.265 kcal/mol
19,TKIIVNGKTFTAPTEEEAQKIAEKQAKKAGLTVHKKNGTFELK [L25Q],-0.482 kcal/mol
20,TKIIVNGKTFTAPTEEEAQKIAEKTAKKAGLTVHKKNGTFELK [L25T],-0.134 kcal/mol

row,Variant,folding stability dG
1,TKIIVNGKTFTAPTEEEAQKIAEKYAKKAGLTVHKKNGTFELK [L25Y],0.649 kcal/mol
2,TKIIVNGKTFTAPTEEEAQKIAEKVAKKAGLTVHKKNGTFELK [L25V],0.245 kcal/mol
3,TKIIVNGKTFTAPTEEEAQKIAEKMAKKAGLTVHKKNGTFELK [L25M],0.784 kcal/mol
4,TKIIVNGKTFTAPTEEEAQKIAEKIAKKAGLTVHKKNGTFELK [L25I],1.13 kcal/mol
5,TKIIVNGKTFTAPTEEEAQKIAEKGAKKAGLTVHKKNGTFELK [L25G],-0.493 kcal/mol
6,TKIIVNGKTFTAPTEEEAQKIAEKFAKKAGLTVHKKNGTFELK [L25F],0.651 kcal/mol
7,TKIIVNGKTFTAPTEEEAQKIAEKAAKKAGLTVHKKNGTFELK [L25A],-0.68 kcal/mol
8,TKIIVNGKTFTAPTEEEAQKIAEKDAKKAGLTVHKKNGTFELK [L25D],-0.802 kcal/mol
9,TKIIVNGKTFTAPTEEEAQKIAEKWAKKAGLTVHKKNGTFELK [L25W],1.48 kcal/mol
10,TKIIVNGKTFTAPTEEEAQKIAEKHAKKAGLTVHKKNGTFELK [L25H],-0.294 kcal/mol
11,TKIIVNGKTFTAPTEEEAQKIAEKRAKKAGLTVHKKNGTFELK [L25R],-0.578 kcal/mol
12,TKIIVNGKTFTAPTEEEAQKIAEKLAIKAGLTVHKKNGTFELK [K27I],0.597 kcal/mol
13,TKIIVNGKTFTAPTEEEAQKIAEKLAQKAGLTVHKKNGTFELK [K27Q],0.76 kcal/mol
14,TKIIVNGKTFTAPTEEEAQKIAEKLAEKAGLTVHKKNGTFELK [K27E],0.532 kcal/mol
15,TKIIVNGKTFTAPTEEEAQKIAEKLAAKAGLTVHKKNGTFELK [K27A],0.812 kcal/mol
16,TKIIVNGKTFTAPTEEEAQKIAEKLAHKAGLTVHKKNGTFELK [K27H],0.537 kcal/mol
17,TKIIVNGKTFTAPTEEEAQKIAEKLANKAGLTVHKKNGTFELK [K27N],0.413 kcal/mol
18,TKIIVNGKTFTAPTEEEAQKIAEKLADKAGLTVHKKNGTFELK [K27D],0.266 kcal/mol
19,TKIIVNGKTFTAPTEEEAQKIAEKLARKAGLTVHKKNGTFELK [K27R],0.991 kcal/mol
